Reference: patent US20190256588A1 (BEIJING HANMI PHARM, published 2019)

Columns and labels:
recombinant human IL-17A = biological target: T1, recombinant human IL-17A (human, UniProt Q16552 24-155); assay: ELISA, recombinant human IL-17A coated on the plate, HRP anti-human IgG, OD450nm
T1 construct: also called IL-17A antigen
Procedure: Recombinant human IL-17A, monkey IL-17A, rat IL-17A and mouse IL-17A (all purchased from Sino Biological Inc.), were coated on a 96-well high-absorbing ELISA plate with a carbonate buffer solution with pH 9.6, the coating concentration was […], the coating amount was 100 μL per well, and the coating was carried out at 4° C. overnight. The plate was washed five times with PBST and blocked with 300 μL/well of PBST containing 1% BSA, and then incubated at 25° C. for 1 hour. The plate was washed five times with PBST. […] The plate was washed five times with PBST. Then, horseradish peroxidase-labeled anti-human IgG antibody (Chemicon, Catalog Number AP309P) 1:2000 diluted in PBST containing 1% BSA was added, 100 μL per well, incubated at 25° C. for 1 hour. The plate was washed five times with PBST. 100 μL/well of colorimetric substrate TMB was added and incubated at room temperature for 10 minutes. Color development was terminated by adding 100 μL/well of 1 M H₂SO₄. The absorbance at 450 nm was read on a microplate reader.

recombinant human IL-17C = biological target: T2, recombinant human IL-17C (human, UniProt Q9P0M4 19-197); assay: ELISA, cytokine coated on plate at 1 µg/mL
T2 sequence (looked up): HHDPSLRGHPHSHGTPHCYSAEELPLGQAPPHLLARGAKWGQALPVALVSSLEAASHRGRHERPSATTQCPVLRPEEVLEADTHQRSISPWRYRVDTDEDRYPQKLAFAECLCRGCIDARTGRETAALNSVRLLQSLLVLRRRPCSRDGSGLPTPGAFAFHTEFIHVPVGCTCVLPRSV
Procedure: (§1) Recombinant human IL-17A, IL-17B, IL-17C, IL-17D, IL-17E, IL-17F, IL-1, IL-2, IL-6, IL-8, IL-21, IL-22, IL-23, IFN-g and TNFα (purchased from Sino Biological Inc. or R&D systems) were coated on a 96-well high-absorbing ELISA plate with a carbonate buffer solution with pH 9.6, the coating concentration was 1 μg/mL, the coating amount was 100 μL per well, and the coating was carried ax 4° C. out overnight. The plate was washed five times with PBST and blocked with 300 μL/well of PBST containing 1% BSA and incubated at 25° C. for 1 hour. The plate was washed five times with PBST. […] The plate was washed five times with PBST. Then, horseradish peroxidase-labeled anti-human IgG antibody (Chemicon, Catalog Number AP309P) 1:2000 diluted in PBST containing 1% BSA was added, 100 μL was added to each well, incubated at 25° C. for 1 hour. The plate was washed five times with PBST. 100 μL/well of colorimetric substrate TMB was added and incubated at room temperature for 10 minutes. Color development was terminated by adding 100 μL/well of 1 M H₂SO₄. The absorbance at 450 nm was read on a microplate reader.
(§2) Recombinant human IL-17A, IL-17B, IL-17C, IL-17D, IL-17E, IL-17F, IL-1, IL-2, IL-6, IL-8, IL-21, IL-22, IL-23, IFN-g and TNFα (purchased from Sino Biological Inc. or R&D systems) were coated on a 96-well high-absorbing ELISA plate with a carbonate buffer solution with pH 9.6, the coating concentration was 1 μg/mL, the coating amount was 100 μL per well, and the coating was carried at 4° C. out overnight. Washed five times with PBST. Blocked with 300 μL/well of PBST containing 1% BSA and incubated at 25° C. for 1 hour. Washed five times with PBST.

recombinant human IL-21 = recombinant human IL-21 (human, UniProt Q9HBE4 32-162, limits assumed); assay: ELISA, cytokine coated on plate at 1 µg/mL
Sequence of recombinant human IL-21 (Q9HBE4 32-162 limits assumed): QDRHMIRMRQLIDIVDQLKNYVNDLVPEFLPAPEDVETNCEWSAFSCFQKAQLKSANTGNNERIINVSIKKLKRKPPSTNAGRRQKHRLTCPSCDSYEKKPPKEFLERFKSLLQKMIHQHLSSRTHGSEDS
Procedure: as §1, §2

recombinant human TNFα = recombinant human TNFα (human, UniProt P01375 77-233); assay: ELISA, cytokine coated on plate at 1 µg/mL
Sequence of recombinant human TNFα (P01375 77-233 limits assumed): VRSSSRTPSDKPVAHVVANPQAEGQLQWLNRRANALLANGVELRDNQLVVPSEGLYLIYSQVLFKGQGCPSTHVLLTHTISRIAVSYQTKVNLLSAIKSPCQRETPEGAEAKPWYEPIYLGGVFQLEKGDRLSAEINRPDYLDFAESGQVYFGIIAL
Procedure: as §1, §2

recombinant human IL-2 = recombinant human IL-2 (human, UniProt P60568 21-153); assay: ELISA, cytokine coated on plate at 1 µg/mL
Sequence of recombinant human IL-2 (P60568 21-153 limits assumed): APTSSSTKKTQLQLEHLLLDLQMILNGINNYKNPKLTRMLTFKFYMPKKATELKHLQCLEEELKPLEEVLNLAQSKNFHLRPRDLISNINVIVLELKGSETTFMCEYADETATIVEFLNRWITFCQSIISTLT
Procedure: as §1, §2

recombinant human IL-17B = biological target: T3, recombinant human IL-17B (human, UniProt Q9UHF5 21-180); assay: ELISA, cytokine coated on plate at 1 µg/mL
T3 sequence (looked up): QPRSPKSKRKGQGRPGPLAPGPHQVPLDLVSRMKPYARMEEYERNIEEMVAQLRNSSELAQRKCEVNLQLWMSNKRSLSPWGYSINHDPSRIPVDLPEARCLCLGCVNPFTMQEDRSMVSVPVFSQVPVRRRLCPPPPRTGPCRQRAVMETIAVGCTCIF
Procedure: as §1, §2

recombinant human IL-23 = biological target: T4, recombinant human IL-23 (human, UniProt Q9NPF7 20-189; P29460 23-328); assay: ELISA, cytokine coated on plate at 1 µg/mL
T4 sequence (looked up) 1: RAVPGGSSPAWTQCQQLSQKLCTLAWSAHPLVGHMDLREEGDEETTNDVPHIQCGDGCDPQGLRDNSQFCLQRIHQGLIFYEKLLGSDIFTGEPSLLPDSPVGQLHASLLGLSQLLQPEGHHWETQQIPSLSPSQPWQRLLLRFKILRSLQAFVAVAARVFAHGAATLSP
T4 sequence (looked up) 2: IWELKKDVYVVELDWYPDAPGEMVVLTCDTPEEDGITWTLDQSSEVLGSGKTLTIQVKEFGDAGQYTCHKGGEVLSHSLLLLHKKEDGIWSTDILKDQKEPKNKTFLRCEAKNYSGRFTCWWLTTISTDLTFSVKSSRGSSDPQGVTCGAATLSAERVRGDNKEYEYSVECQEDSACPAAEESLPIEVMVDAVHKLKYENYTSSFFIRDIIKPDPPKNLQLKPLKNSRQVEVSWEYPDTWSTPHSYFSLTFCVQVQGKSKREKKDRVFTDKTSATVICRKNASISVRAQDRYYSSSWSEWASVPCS
Procedure: as §1, §2

recombinant human IL-6 = recombinant human IL-6 (human, UniProt P05231 30-212); assay: ELISA, cytokine coated on plate at 1 µg/mL
Sequence of recombinant human IL-6 (P05231 30-212 limits assumed): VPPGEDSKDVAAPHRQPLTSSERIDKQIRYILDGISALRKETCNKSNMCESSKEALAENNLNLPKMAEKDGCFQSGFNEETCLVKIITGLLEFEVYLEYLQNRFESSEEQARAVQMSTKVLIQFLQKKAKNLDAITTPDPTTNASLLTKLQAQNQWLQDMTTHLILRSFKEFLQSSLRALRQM
Procedure: as §1, §2

recombinant human IL-17E = biological target: T5, recombinant human IL-17E (human, UniProt Q9H293 33-177); assay: ELISA, cytokine coated on plate at 1 µg/mL
T5 sequence (looked up): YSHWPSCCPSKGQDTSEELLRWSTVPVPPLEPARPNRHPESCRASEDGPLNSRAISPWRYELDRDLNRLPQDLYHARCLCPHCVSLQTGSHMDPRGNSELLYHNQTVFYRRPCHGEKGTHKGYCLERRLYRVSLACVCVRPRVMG
Procedure: as §1, §2

recombinant human IL-8 = recombinant human IL-8 (human, UniProt P10145 28-99, limits assumed); assay: ELISA, cytokine coated on plate at 1 µg/mL
Sequence of recombinant human IL-8 (P10145 28-99 limits assumed): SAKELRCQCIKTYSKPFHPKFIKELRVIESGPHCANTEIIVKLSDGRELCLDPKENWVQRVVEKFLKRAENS
Procedure: as §1, §2

T1 sequence (Q16552 24-155 limits assumed): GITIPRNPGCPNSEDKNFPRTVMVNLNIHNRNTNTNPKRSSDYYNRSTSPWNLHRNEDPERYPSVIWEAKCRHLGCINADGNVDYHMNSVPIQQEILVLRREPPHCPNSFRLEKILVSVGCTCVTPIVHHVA

B1: anti-human IL-17A chimeric monoclonal antibody (antibody, human IgG1, kappa, V domains shown)
VH: DVQVQESGPGLVKPSQSLSLTCTVTGNSITSYYAWNWIRQFPGNKLEWMGYITYSGTTSYNPSLKSRISITRDTSKNQFFLQLNSVTTEDTATYYCAREEYDDIYAVDYWGQGTSVTVSS
VL: IIVMTQTPLSLPVSLGDQASISCRSSQSLVHSNGNTYLHWYLQKPGQSPKLLIYKVYNRFSGVPDRFSGSGSGTDFTLKISRVEAEDLGVYFCSQSTHFPTFGGGTKLEIKR
notes: expressed in 293F cells; also called Anti-human IL-17A Chimeric Antibody; chimeric anti-human IL-17A monoclonal antibody
Q: B1 was tested. Which EC50 (recombinant human IL-17A) did it give?
A: 0.07 nM

Q: Does B1 bind (recombinant human IL-17C)?
A: no binding

Q: Does B1 bind (recombinant human IL-21)?
A: no binding

Q: Does B1 bind (recombinant human TNFα)?
A: no binding

Q: Does B1 bind (recombinant human IL-2)?
A: no binding

Q: Does B1 bind (recombinant human IL-17B)?
A: no binding

Q: Does B1 bind (recombinant human IL-23)?
A: no binding

Q: Does B1 bind (recombinant human IL-6)?
A: no binding

Q: Does B1 bind (recombinant human IL-17E)?
A: no binding

Q: Does B1 bind (recombinant human IL-8)?
A: no binding
